# Reference: US20120282619
# T1: p190RhoGAP, Q9NRY4
# T1 chain: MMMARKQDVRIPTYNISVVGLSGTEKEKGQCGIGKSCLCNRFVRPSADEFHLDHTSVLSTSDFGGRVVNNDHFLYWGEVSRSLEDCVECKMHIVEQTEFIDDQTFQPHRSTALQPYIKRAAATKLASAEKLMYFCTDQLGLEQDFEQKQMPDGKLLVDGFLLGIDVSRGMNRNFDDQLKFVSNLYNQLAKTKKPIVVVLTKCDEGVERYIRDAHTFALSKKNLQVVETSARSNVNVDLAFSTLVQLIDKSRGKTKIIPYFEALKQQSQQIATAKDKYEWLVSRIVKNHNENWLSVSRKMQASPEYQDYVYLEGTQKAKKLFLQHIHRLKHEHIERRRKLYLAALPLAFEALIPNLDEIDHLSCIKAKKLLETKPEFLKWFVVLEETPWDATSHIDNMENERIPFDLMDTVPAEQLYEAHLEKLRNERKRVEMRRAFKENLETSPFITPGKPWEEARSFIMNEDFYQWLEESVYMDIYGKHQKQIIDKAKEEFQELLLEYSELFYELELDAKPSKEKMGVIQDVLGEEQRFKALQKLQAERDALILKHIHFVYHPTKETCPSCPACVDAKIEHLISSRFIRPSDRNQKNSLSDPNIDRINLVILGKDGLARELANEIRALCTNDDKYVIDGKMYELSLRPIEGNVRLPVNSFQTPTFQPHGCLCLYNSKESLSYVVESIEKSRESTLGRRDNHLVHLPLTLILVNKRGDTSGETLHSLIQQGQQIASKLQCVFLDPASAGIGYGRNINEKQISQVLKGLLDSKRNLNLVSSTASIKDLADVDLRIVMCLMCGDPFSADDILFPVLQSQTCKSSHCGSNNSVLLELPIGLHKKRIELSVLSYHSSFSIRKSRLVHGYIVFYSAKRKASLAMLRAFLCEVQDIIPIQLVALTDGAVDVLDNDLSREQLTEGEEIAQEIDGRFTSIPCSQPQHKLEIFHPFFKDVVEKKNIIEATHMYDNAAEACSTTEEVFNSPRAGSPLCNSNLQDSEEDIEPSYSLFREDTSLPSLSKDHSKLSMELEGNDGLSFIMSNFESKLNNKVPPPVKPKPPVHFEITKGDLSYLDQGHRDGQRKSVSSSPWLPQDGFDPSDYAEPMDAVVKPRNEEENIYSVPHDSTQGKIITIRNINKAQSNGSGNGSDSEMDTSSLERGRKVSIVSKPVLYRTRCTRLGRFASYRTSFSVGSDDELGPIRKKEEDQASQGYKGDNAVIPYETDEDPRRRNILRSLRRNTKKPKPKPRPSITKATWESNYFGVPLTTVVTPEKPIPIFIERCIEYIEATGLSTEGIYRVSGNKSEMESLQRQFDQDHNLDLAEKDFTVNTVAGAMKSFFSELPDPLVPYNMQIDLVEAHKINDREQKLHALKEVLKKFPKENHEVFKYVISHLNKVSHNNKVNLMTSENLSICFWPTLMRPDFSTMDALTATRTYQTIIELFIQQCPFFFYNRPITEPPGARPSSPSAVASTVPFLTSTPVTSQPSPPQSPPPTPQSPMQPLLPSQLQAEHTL
# T2: GTPase regulator associated with FAK (GRAF), Q9UNA1
# T2 chain: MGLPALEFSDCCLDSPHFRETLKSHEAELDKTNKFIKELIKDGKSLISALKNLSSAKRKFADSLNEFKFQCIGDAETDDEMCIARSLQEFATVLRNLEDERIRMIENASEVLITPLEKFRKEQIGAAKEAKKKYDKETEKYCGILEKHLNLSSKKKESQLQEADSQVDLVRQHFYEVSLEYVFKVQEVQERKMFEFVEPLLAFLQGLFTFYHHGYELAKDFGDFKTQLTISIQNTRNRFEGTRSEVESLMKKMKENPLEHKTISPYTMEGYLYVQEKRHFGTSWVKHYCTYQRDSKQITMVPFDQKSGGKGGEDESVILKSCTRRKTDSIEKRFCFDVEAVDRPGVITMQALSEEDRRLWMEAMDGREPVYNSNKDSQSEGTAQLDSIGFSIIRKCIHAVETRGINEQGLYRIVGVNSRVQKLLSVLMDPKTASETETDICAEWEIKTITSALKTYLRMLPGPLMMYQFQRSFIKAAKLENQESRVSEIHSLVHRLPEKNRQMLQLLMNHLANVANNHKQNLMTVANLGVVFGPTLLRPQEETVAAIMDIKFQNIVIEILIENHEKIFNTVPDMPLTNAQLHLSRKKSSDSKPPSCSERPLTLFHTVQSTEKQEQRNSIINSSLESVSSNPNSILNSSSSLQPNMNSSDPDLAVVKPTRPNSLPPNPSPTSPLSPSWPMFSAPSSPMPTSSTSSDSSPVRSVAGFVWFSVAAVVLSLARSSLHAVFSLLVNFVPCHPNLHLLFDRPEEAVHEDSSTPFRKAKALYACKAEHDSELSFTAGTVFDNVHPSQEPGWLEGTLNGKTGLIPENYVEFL
# Experiments:
# p190RhoGAP, Q9NRY4 = biological target: T1, p190RhoGAP, Q9NRY4
# [1] = biological target: T2, GTPase regulator associated with FAK …
protein,measurement,setting,value
focal adhesion kinase (FAK) (protein) AAAYLDPNLNHTPNSSTKTHLGTGMERSPGAMERVLKVFHYFESNSEPTTWASIIRHGDATDVRGIIQKIVDSHKVKHVACYGFRLSHLRSEEVHWLHVDMGVSSVREKYELAHPPEEWKYELRIRYLPKGFLNQFTEDKPTLNFFYQQVKSDYMLEIADQVDQEIALKLGCLEIRRSYWEMRGNALEKKSNYEVLEKDVGLKRFFPKSLLDSVKAKTLRKLIQQTFRQFANLNREESILKFFEILSPVYRFDKECFKCALGSSWIISVELAIGPEEGISYLTDKGCNPTHLADFTQVQTIQYSNSEDKDRKGMLQLKIAGAPEPLTVTAPSLTIAENMADLIDGYCRLVNGTSQSFIIRPQKEGERALPSIPKLANSEKQGMRTHAVSVSETDDYAEIIDEEDTYTMPSTRDYEIQRERIELGRCIGEGQFGDVHQGIYMSPENPALAVAIKTCKNCTSDSVREKFLQEALTMRQFDHPHIVKLIGVITENPVWIIMELCTLGELRSFLQVRKYSLDLASLILYAYQLSTALAYLESKRFVHRDIAARNVLVSSNDCVKLGDFGLSRYMEDSTYYKASKGKLPIKWMAPESINFRRFTSASDVWMFGVCMWEILMHGVKPFQGVKNNDVIGRIENGERLPMPPNCPPTLYSLMTKCWAYDPSRRPRFTELKAQLSTILEEEKAQQEERMRMESRRQATVSWDSGGSDEAPPKPSRPGYPSPRSSEGFYPSPQHMVQTNHYQVSGYPGSHGITAMAGSIYPGQASLLDQTDSWNHRPQEIAMWQPNVEDSTVLDLRGIGQVLPTHLMEERLIRQQQEMEEDQRWLEKEERFLKPDVRLSRGSIDREDGSLQGPIGNQHIYQPVGKPDPAAPPKKPPRPGAPGHLGSLASLSSPADSYNEGVKLQPQEISPPPTANLDRSNDKVYENVTGLVKAVIEMSSKIQPAPPEEYVPMVKEVGLALRTLLATVDETIPLLPASTHREIEMAQKLLNSDLGELINKMKLAQQYVMTSLQQEYKKQMLTAAHALAVDAKNLLDVIDQARLKMLGQTRPH,RhoA activity,"p190RhoGAP, Q9NRY4","TM4SF5 expressed in SNU449 cells inhibited RhoA activity, leading to the elongation of cells"
same,RhoA activity,[1],"TM4SF5 expressed in SNU449 cells inhibited RhoA activity, leading to the elongation of cells"
